Measurements from patent publication US20260167959A1, “APTAZYME-BASED REGULATABLE GENE EXPRESSION SYSTEMS” (REJUVENATE BIO INC, priority 2022, published 2026).

B1: RA373 (nucleic acid)
DNA: GCGCGTCCTGGATTCGCGGAAACGCGTACATCCAGCTGACGAGTCCCAAGTGATACCAGCATCGTCTTGATGCCCTTGGCAGCACTAATAGGACGAAACGCGC
modifications: expressed or natural sequence
B2: RA380 (nucleic acid)
DNA: GCGCGTCCTGGATTCGCGGAAACGCCGAGAATACCAGCATCGTCTTGATGCCCTTGGAAGTCTCGGTACATCCAGCTGACGAGTCCCAAATAGGACGAAACGCGC
modifications: expressed or natural sequence
B3: RA382 (nucleic acid)
DNA: GCGCGTCCTGGATTCGCGGAAACGCGTACATCCAGCTGACGCCGGAATACCAGCATCGTCTTGATGCCCTTGGAAGTCCGGAGTCCCAAATAGGACGAAACGCGC
modifications: expressed or natural sequence
B4: RA383 (nucleic acid)
DNA: CGGAATACCAGCATCGTCTTGATGCCCTTGGAAGTCCGGCGCGTCCTGGATTCGCGGAAACGCGTACATCCAGCTGACGAGTCCCAAATAGGACGAAACGCGC
modifications: expressed or natural sequence
B5: RA369 (nucleic acid)
DNA: GCGCGTCCTGGATTCGGAATACCAGCATCGTCTTGATGCCCTTGGAAGTCCGCGCGGAAACGCGTACATCCAGCTGACGAGTCCCAAATAGGACGAAACGCGC
modifications: expressed or natural sequence
B6: RA377 (nucleic acid)
DNA: GCGCGTCCTGGATTCGCGGAAACGCGTACATCCAGCTGACGAGTCCCAAATAGGACGGAGAATACCAGCATCGTCTTGATGCCCTTGGAAGTCTCAAACGCGC
modifications: expressed or natural sequence
B7: RA386 (nucleic acid)
DNA: GCGCGTCCTGGATTCGCGGAAACGCGTACATCCAGCTGACGGGAATACCAGCATCGTCTTGATGCCCTTGGAAGTCCAGTCCCAAATAGGACGAAACGCGC
modifications: expressed or natural sequence
B8: RA367 (nucleic acid)
DNA: GCGCGTCCTGGATGGAATACCAGCATCGTCTTGATGCCCTTGGAAGTCCTCGCGGAAACGCGTACATCCAGCTGACGAGTCCCAAATAGGACGAAACGCGC
modifications: expressed or natural sequence
B9: RA364 (nucleic acid)
DNA: GCGCGTCCTGGATTCGCGGAAACGCGTGGAATACCAGCATCGTCTTGATGCCCTTGGAAGTCCACATCCAGCTGACGAGTCCCAAATAGGACGAAACGCGC
modifications: expressed or natural sequence
B10: RA371 (nucleic acid)
DNA: GCGCGTCCTGGATTCGCGGAAACGCGTACATCCAGCTGACGAGTCCCAAAAGAATACCAGCATCGTCTTGATGCCCTTGGAAGTCTTAGGACGAAACGCGC
modifications: expressed or natural sequence
B11: RA376 (nucleic acid)
DNA: GCGCGTCCTGGATTCGCGGAAACGCGTACATCCAGCTGAAGAATACCAGCATCGTCTTGATGCCCTTGGAAGTCTCGAGTCCCAAATAGGACGAAACGCGC
modifications: expressed or natural sequence
B12: RA372 (nucleic acid)
DNA: GCGCGTCCTGGATTCGCGGAAACGCGTACATCCAGCTGACGAGTCCCAAACGAGAATACCAGCATCGTCTTGATGCCCTTGGAAGTCTCGTAGGACGAAACGCGC
modifications: expressed or natural sequence
B13: RA385 (nucleic acid)
DNA: GCGCGTCCTGGATCCGGAATACCAGCATCGTCTTGATGCCCTTGGAAGTCCGGTCGCGGAAACGCGTACATCCAGCTGACGAGTCCCAAATAGGACGAAACGCGC
modifications: expressed or natural sequence
B14: RA368 (nucleic acid)
DNA: GCGCGTCCTGGATTCGCGGAAACGCGTACATCCAGCTGACGAGTCCCGAGAATACCAGCATCGTCTTGATGCCCTTGGAAGTCTCGCAAATAGGACGAAACGCGC
modifications: expressed or natural sequence
B15: RA003 (nucleic acid)
DNA: GCGCGTCCTGCGGAATACCAGCATCGTCTTGATGCCCTTGGAAGTCCGGATTCGCGGAAACGCGTACATCCAGCTGACGAGTCCCAAATAGGACGAAACGCGC
modifications: expressed or natural sequence
B16: RA036 (nucleic acid)
DNA: GCGCGTCCTGGATTCGCGGAAACGCGTACATCCAGCTGACGAGTCCCAAATAGGCGAGAATACCAGCATCGTCTTGATGCCCTTGGAAGTCTCGACGAAACGCGC
modifications: expressed or natural sequence
B17: RA365 (nucleic acid)
DNA: GCGAGAATACCAGCATCGTCTTGATGCCCTTGGAAGTCTCGTCCTGGATTCGCGGAAACGCGTACATCCAGCTGACGAGTCCCAAATAGGACGAAACGCGC
modifications: expressed or natural sequence
B18: RA366 (nucleic acid)
DNA: GCGCGTCCTGGATTCGCGGAAGAGAATACCAGCATCGTCTTGATGCCCTTGGAAGTCTCACGCGTACATCCAGCTGACGAGTCCCAAATAGGACGAAACGCGC
modifications: expressed or natural sequence
B19: RA384 (nucleic acid)
DNA: GCGCGTCCTGGATTCGCGGAAACGCGTACATCCAGCTGACGAGTCGAGAATACCAGCATCGTCTTGATGCCCTTGGAAGTCTCCCAAATAGGACGAAACGCGC
modifications: expressed or natural sequence
B20: RA378 (nucleic acid)
DNA: GCGCGTCCTGGATTCGCGGAAACGCGTACATCCCGGAATACCAGCATCGTCTTGATGCCCTTGGAAGTCCGGCAGCTGACGAGTCCCAAATAGGACGAAACGCGC
modifications: expressed or natural sequence
B21: RA370 (nucleic acid)
DNA: GCGCGTCCTGGATTCGCGGAAACGCGTACATCCAGCTGACGAGTCCCAAATAGGACGAAACGGGAATACCAGCATCGTCTTGATGCCCTTGGAAGTCCCGC
modifications: expressed or natural sequence
B22: RA379 (nucleic acid)
DNA: GCGCGTCCTGGATTCGCGGAAACGCGGAATACCAGCATCGTCTTGATGCCCTTGGAAGTCCGTACATCCAGCTGACGAGTCCCAAATAGGACGAAACGCGC
modifications: expressed or natural sequence
B23: RA037 (nucleic acid)
DNA: GCGCGTCCTGGATTCGCCGGAATACCAGCATCGTCTTGATGCCCTTGGAAGTCCGGGAAACGCGTACATCCAGCTGACGAGTCCCAAATAGGACGAAACGCGC
modifications: expressed or natural sequence
B24: RA381 (nucleic acid)
DNA: GCGCGTCCTGGATTCGCGGAAACGCGTACATCCAGCTGACGAGTCCCAAATAGGACGAAACGCGCCCGGAATACCAGCATCGTCTTGATGCCCTTGGAAGTCCGG
modifications: expressed or natural sequence
B25: RA375 (nucleic acid)
DNA: GCGCGTCCTGGATTCGCGGAAACGCGTACATCCAGCTCCGGAATACCAGCATCGTCTTGATGCCCTTGGAAGTCCGGGACGAGTCCCAAATAGGACGAAACGCGC
modifications: expressed or natural sequence
B26: RA387 (nucleic acid)
DNA: GCGCGTCCTGGATTCGCGGAAACGCGCCGGAATACCAGCATCGTCTTGATGCCCTTGGAAGTCCGGTACATCCAGCTGACGAGTCCCAAATAGGACGAAACGCGC
modifications: expressed or natural sequence
B27: RA374 (nucleic acid)
DNA: GCGCGTCCTGGATTCGCGGAAACGCGTACATCCAGCTGCCGGAATACCAGCATCGTCTTGATGCCCTTGGAAGTCCGGACGAGTCCCAAATAGGACGAAACGCGC
modifications: expressed or natural sequence

Test system: Renilla luciferase RNA
Experiment: Barcoded aptazyme variant library screen: un-cleaved Renilla luciferase RNA by barcode read counts, HEK293-T cells
Type: cell-based
Settings: triplicate
Procedure, shortened: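 Barcode sequencing of cDNA versus DNA, normalized per aptazyme, gave the un-cleaved Renilla luciferase RNA fraction and fold-change with versus without theophylline (triplicates). Library: T3H48 ribozyme with one of seven theophylline aptamer variants inserted at each position, placed in the Renilla 3′ UTR of a dual-luciferase vector.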

[1] = un-cleaved Renilla luciferase RNA by barcode read counts, with 1 mM theophylline (ON) over without theophylline (OFF), HEK293-T cells
[2] = un-cleaved Renilla luciferase RNA, HEK293-T cells cultured with 1 mM theophylline (ON) over without theophylline (OFF), barcode read counts

Molecule	Fold change in RNA expression between the ON state and the OFF state [1]	Fold change in RNA expression between the ON state and the OFF state [2]
B1	0.8	–
B2	0.8	–
B3	0.8	–
B4	0.8	–
B5	0.8	–
B6	0.8	–
B7	0.8	–
B8	0.8	–
B9	0.8	–
B10	0.8	–
B11	0.8	–
B12	0.8	–
B13	0.8	–
B14	0.8	–
B15	–	5.5 fold
B16	–	2.2 fold
B17	0.8	–
B18	0.8	–
B19	0.8	–
B20	0.8	–
B21	0.8	–
B22	0.8	–
B23	–	2.2 fold
B24	0.8	–
B25	0.8	–
B26	0.8	–
B27	0.8	–
